In PMC7756681, “Functional Hybrid Molecules for the Visualization of Cancer: PESIN‐Homodimers Combined with Multimodal Molecular Imaging Probes for Positron Emission Tomography and Optical Imaging: Suited for Tracking of GRPR‐Positive Malignant Tissue” (Chemistry (Weinheim an Der Bergstrasse, Germany), 2020):
Like-named read-outs stand apart in the source and are kept apart here.

Legend:
[1] = LogD determination of 68Ga-labeled MIUs and bioconjugates (water/1-octanol partition, γ-counter); settings: pH 7.4
Description: Following the synthesis of the MIUs 6 a–13 a and the corresponding bioconjugates 6–13, the radiolabeling efficiency of the compounds with ^68Ga^3+ was investigated. […] In the following, we investigated the lipophilicity of the MIUs [^68Ga]6 a–[^68Ga]13 a and their bioconjugates [^68Ga]6–[^68Ga]13 (Table 1 and Figure 2 C,D).
(§1) A solution of the respective multimodal imaging unit (MIU) 6a – 13a (5 nmol) or multimodal imaging agent 6 - 14 (5 nmol) in H2O (Tracepur quality, 1mM) was added to 90 - 120 MBq of [68Ga]GaCl in a solution obtained by fractioned elution of an IGG 68Ge/68Ga generator system […]
(§2) with HCl (0.1 M, 1.6 mL) and subsequent titration to pH 3.5 – 4.2 by addition of sodium acetate solution (1.25 M, 50 – 75 µL). All labeling experiments were performed by addition of 2 mg ascorbic acid to suppress radiolysis-induced product fragmentation. In the labeling experiments of the MIUs 6a – 13a, 1 - 4 mg TCEP x HCl were added and the pH was adjusted to 3.5 – 4.2 by addition of sodium acetate solution (1.25 M). After reaction for 10 min at 45°C, the reaction mixtures were analyzed by analytical radio-HPLC.
(§3) For 68Ga-6/6a – 68Ga-13/13a, the water/1-octanol partition coefficient (log ) was determined by […]
(§4) adding 5 µL of the respectively 68Ga-labeled compound (0.8 – 1.2 MBq) to a mixture of phosphate buffer (0.05 M, pH 7.4, 795 µL) and 1-octanol (800 µL). The mixtures were intensively shaken for 5 minutes on a vibrating plate. After subsequent centrifugation at 13 000 rpm for 5 min, 125 µL were taken from each phase and measured in a γ-counter. The logD values were calculated from three or four independent experiments, each performed in triplicate.
For 14, the water/1-octanol partition coefficient (logD) was determined by semipreparative HPLC.
For this purpose, 10 µL solution (c = 5 x 10-4 mol/L) of the substance were added to a mixture of 1 mL 1-octanol and 990 µL phosphate buffered solution (0.05 M, pH 7.4) and the mixture was vigorously shaken for 5 minutes. After centrifugation, the phases were separated and both phases were analyzed by semipreparative HPLC. The logD was determined by three separate measurements, each experiment performed in triplicate.
(§5) Competitive receptor binding assay
(§6) Stably GRPR-transfected Human Embryonic Kidney 293 cells (HEK-GRPR) were cultured at 37°C in Dulbecco’s Modified Eagle’s Medium (DMEM, high glucose, GlutaMax-I, 500 mL) […]
(§7) a humidified atmosphere containing 5 % CO2. The medium was exchanged every two or three days and cells were split at >75 % confluence. In vitro binding affinities were determined via competitive displacement experiments which were performed at least trice, each experiment performed in triplicate. A Millipore Multiscreen punch kit and Millipore 96 well filter plates (pore size 1.2 µm) were used. The plates were incubated with PBS/BSA (1%) solution (each well 200 µL) for one hour before use. HEK-GRPR cells were harvested and suspended carefully in Opti- […]

[2] = molecular target: T1, gastrin-releasing peptide receptor (GRPR) (Homo sapiens, UniProt P30550); assay: Competitive displacement assay on stably GRPR-transfected HEK cells using [125I]-Tyr4-bombesin; assay type: binding; settings: [125I]-Tyr4-bombesin as competitor, 1 h, ambient temperature, read-out: IC50 (GRPR affinity)
T1 construct: host or cells: Human Embryonic Kidney 293 cells (HEK-GRPR)
Description: as §5, §6
as §7, with “Opti-MEM I (GlutaMAX I) medium. 50 µL of a cell suspension containing […] were seeded in each well. To this, a total volume of 50 µL was added to each well, containing 25 µL (0.012” for “Opti-”
The competitor was added in 11 increasing concentrations ranging from 0.25 – 500 nM for 6 – […]
binding of the radioligand. After one hour of incubation at ambient temperature, the solution was filtrated and the filters were washed with cold PBS (3 times). The filters were collected and […]

[3] = Photophysical properties (absorption and emission spectra in PBS); assay type: physicochemical
From the text: After studying the chemical and biological properties of the MIUs and their corresponding multimodal imaging agents, the photophysical properties of the substances were finally under investigation. Here, we found no significant decrease or shift of the optical and fluorescent characteristics of the bioconjugates compared to the MIUs (Table 2).
Fig. S27 Normalized absorption and emission spectra of 7 (left) and 7a (right), recorded in PBS
at a concentration of c = 1.0 x 10-5 mol/L, emission wavelength stated in the graph (bottom, left
Fig. S28 Normalized absorption and emission spectra of 8 (left) and 8a (right), recorded in PBS
Fig. S29 Normalized absorption and emission spectra of 9 (left) and 9a (right), recorded in PBS […]
Fig. S30 Normalized absorption and emission spectra of 10 (left) and 10a (right), recorded in
PBS at a concentration of c = 1.0 x 10-5 mol/L, emission wavelength stated in the graph (bottom,
Fig. S31 Normalized absorption and emission spectra of 11 (left) and 11a (right), recorded in
Fig. S32 Normalized absorption and emission spectra of 12 (left) and 12a (right), recorded in […]

PC-3 cells = assay: Confocal fluorescence microscopy on GRPR-positive PC-3 cells; assay type: cell-based, human; settings: 10 μM, 4 h incubation
Description: Figure 4 Confocal fluorescence microscopy images for pyridinium-based bioconjugate […]). […] (B) NIR detector window (660-720 nm, 6). (C) Transmitted light. […] After one hour of incubation at ambient temperature, the solution was filtrated and the filters were washed with cold PBS (3 times). The filters were collected and measured by γ-counting. […] were calculated by fitting the obtained data via a nonlinear regression analysis using GraphPad Prism Software (v5.04). […] PC-3 cells were cultured at 37°C in RPMI 1640 medium supplemented with 10% FCS, 1% L-Glutamine and 1% PenStrep in a humidified atmosphere containing 5% CO2. […] Fluorescence microscopy was performed on a Leica TCS SP8 confocal microscope with laser excitation wavelengths of 405 and 638 nm. Overlays of microscopies were generated directly with the operating software or afterwards using FIJI software (v1.50e). PC-3 cells (4 x 104) were seeded two days prior to the measurements in six-well culture plates, each well was equipped with cover slips for microscopy. Medium was exchanged after 24h. After 2 days, the medium was removed and the cells were washed carefully with PBS. Then, 1 mL of a 10 μM solution of 6 in antibiotic-free medium was added, followed by incubation for 4h. […]

[4] = assay type: physicochemical; settings: pH 7.4
Description: as §1, §2, §3
as §4, with “The mixtures were intensively shaken for 5 minutes on a vibrating plate.” left out
For 14, the water/1-octanol partition coefficient (logD) was determined by semipreparative HPLC. […]

T1 sequence (P30550 whole entry, species assumed): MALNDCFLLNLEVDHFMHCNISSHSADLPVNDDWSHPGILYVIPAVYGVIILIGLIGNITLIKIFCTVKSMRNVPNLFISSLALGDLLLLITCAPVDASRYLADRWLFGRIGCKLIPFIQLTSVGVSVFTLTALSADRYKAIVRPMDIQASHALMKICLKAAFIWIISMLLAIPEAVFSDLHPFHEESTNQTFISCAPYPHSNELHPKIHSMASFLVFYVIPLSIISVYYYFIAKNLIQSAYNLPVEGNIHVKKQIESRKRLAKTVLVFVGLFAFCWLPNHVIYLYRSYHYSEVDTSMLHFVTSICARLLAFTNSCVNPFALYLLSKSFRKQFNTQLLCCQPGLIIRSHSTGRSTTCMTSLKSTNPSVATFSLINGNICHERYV

| IC50 [2] [nM] | logD [4] | SMILES | logD [1] | Log ϵ ([3]; 1×10^−5 mol L^−1) [M ^−1 cm^−1] | λ max ([3]; 1×10^−5 mol L^−1) [nm] | λem ([3]; 1×10^−5 mol L^−1, excitation wavelength λex=400 nm) [nm] | cellular localization of the agent (PC-3 cells) |
| --- | --- | --- | --- | --- | --- | --- | --- |
| 19 ± 1.13 |  | CSCC[C@H](NC(=O)[C@H](CC(C)C)NC(=O)[C@H](Cc1c[nH]cn1)NC(=O)CNC(=O)[C@@H](NC(=O)[C@H](C)NC(=O)[C@H](Cc1c[nH]c2ccccc12)NC(=O)[C@H](CCC(N)=O)NC(=O)CCOCCOCCOCCOCCNC(=O)CON=Cc1ccc(C(=O)NCCCN(CCCNC(=O)c2ccc(C=NOCC(=O)NCCOCCOCCOCCOCCC(=O)N[C@@H](CCC(N)=O)C(=O)N[C@@H](Cc3c[nH]c4ccccc34)C(=O)N[C@@H](C)C(=O)N[C@H](C(=O)NCC(=O)N[C@@H](Cc3c[nH]cn3)C(=O)N[C@@H](CC(C)C)C(=O)N[C@@H](CCSC)C(N)=O)C(C)C)cc2)CC(=O)N[C@H](CSC2CC(=O)N(CCN3C(=O)CC(SC[C@H](NC(=O)[C@H](CCCC[n+]4c(C)cc(/C=C/c5cc6c7c(c5)CCCN7CCC6)cc4C)NC(=O)CC[C@H](C(=O)O)N4CCN(CC(=O)O)CCN(CC(=O)O)CC4)C(N)=O)C3=O)C2=O)C(=O)NCCOCCOCC(N)=O)cc1)C(C)C)C(N)=O (some centres unmarked) [Compound 6] | -1.71 ± 0.05 | 4.08 | 510 | 630 | cytoplasmic localization |
| 18.7 ± 1.37 | -0.88 ± 0.04 | CSCC[C@H](NC(=O)[C@H](CC(C)C)NC(=O)[C@H](Cc1c[nH]cn1)NC(=O)CNC(=O)[C@@H](NC(=O)[C@H](C)NC(=O)[C@H](Cc1c[nH]c2ccccc12)NC(=O)[C@H](CCC(N)=O)NC(=O)CCOCCOCCOCCOCCNC(=O)CON=Cc1ccc(C(=O)NCCCN(CCCNC(=O)c2ccc(C=NOCC(=O)NCCOCCOCCOCCOCCC(=O)N[C@@H](CCC(N)=O)C(=O)N[C@@H](Cc3c[nH]c4ccccc34)C(=O)N[C@@H](C)C(=O)N[C@H](C(=O)NCC(=O)N[C@@H](Cc3c[nH]cn3)C(=O)N[C@@H](CC(C)C)C(=O)N[C@@H](CCSC)C(N)=O)C(C)C)cc2)CC(=O)N[C@H](CSC2CC(=O)N(CCN3C(=O)CC(SC(C)(C)C)C3=O)C2=O)C(=O)NCCOCCOCC(N)=O)cc1)C(C)C)C(N)=O (some centres unmarked) [Compound 14] |  |  |  |  |  |
